From IntAct's records for PubMed 22345554

B1: Bile acid receptor (Homo sapiens), Q96RI1 (parent)
chain: MVMQFQGLENPIQISPHCSCTPSGFFMEMMSMKPAKGVLTEQVAGPLGQNLEVEPYSQYSNVQFPQVQPQISSSSYYSNLGFYPQQPEEWYSPGIYELRRMPAETLYQGETEVAEMPVTKKPRMGASAGRIKGDELCVVCGDRASGYHYNALTCEGCKGFFRRSITKNAVYKCKNGGNCVMDMYMRRKCQECRLRKCKEMGMLAECMYTGLLTEIQCKSKRLRKNVKQHADQTVNEDSEGRDLRQVTSTTKSCREKTELTPDQQTLLHFIMDSYNKQRMPQEITNKILKEEFSAEENFLILTEMATNHVQVLVEFTKKLPGFQTLDHEDQIALLKGSAVEAMFLRSAEIFNKKLPSGHSDLLEERIRNSGISDEYITPMFSFYKSIGELKMTQEEYALLTAIVILSPDRQYIKDREAVEKLQEPLLDVLQKLCKIHQPENPQHFACLLGRLTELRTFNHHHAEMLMSWRVNDHKFTPLLCEIWDVQ
partner: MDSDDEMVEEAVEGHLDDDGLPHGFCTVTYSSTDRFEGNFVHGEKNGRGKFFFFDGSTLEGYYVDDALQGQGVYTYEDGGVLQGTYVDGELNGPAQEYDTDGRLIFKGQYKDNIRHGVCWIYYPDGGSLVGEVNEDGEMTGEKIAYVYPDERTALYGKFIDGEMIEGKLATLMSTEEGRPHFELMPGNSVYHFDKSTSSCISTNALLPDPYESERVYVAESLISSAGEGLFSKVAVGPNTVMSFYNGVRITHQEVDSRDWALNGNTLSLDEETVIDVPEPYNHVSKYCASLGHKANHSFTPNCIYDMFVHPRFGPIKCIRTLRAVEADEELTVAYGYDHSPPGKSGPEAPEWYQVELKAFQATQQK

Variants of: B1
Settings: with setd7_human SETD7, Q8WTS6

Row | effect of a mutation on the interaction | Variant
1 | decreasing interaction | K220R
